assay: soluble on expression in E. coli; label from the status in PepcDB or PDB records

Question: With “MHINRTGSSQPSIELERFYSASQSLASSSVRELSPAEHANLQAITDYLKDHVFAAHKLPLSESAVDQDAVHAHNEQLDKIIDARARRLLDEGETPATIADTFAKAEKFDRMATTASITLRATPFAAASVLQYMQPAINKGDWLPMPLKPLTPFVSGALSGIMDQVGTTVMNRATGNLHYLSTPPEKLHDAMAASVKRHSPGVMRQAVDLGIAIQAYSARNAVRTVLAPALASRPAVQGAVDISVSAAGGLAANAGFGNRMHSVQARDHLRGGAFVLGIKDQEPKADLSEETDWLVAYKAIKSASYSGAALNAGKRVAGLPLDVATDGLKAVRSLVSATGLAQNGLALAGGFAGVGKLQEMATKNITDPATKAAVSQLTNMAASTGVFAAWTTAAVATDPAVKKAESFLQDTVKSAASSSTSYVADQTVKLAKAGIDASGEAIAATGASLLDTLRRRNAREPDIEEGGIAAGSPSAVPFQPGRS” as the sequence, how does the “soluble on expression in E. coli” value read?
Answer: not soluble

Question: With “MNPEKNLYPYTQESSLEQALNFEIAQVWHTRSEGTYRSFDKTHIYWCSLKHPEHQKAVVIVNGRIESAWKYQELCYDLFRQGFDVYTYDHRGQGRSERLTEDRQIGHVHEFQDYVTDLKALVEHFDLGHYQERFLLAHSMGGAIATRYIQTTPAHPFSALALSAPMFGVNMPWYLRPWALLITQIMAAVTLKPSYAPGYGPYHAKPFHLNLLTHSETRYQLFRELYEAHPELQIGGPSHRWVWQSLMATKQCLQLTRQIKIPMLILQAGEEAIVCNRAQIRLFKKLSRTQKRAALCRIAGARHELLFEQDAYRNQTLDHILRFFADSTIDHKRQHHRP” as the sequence, how does the “soluble on expression in E. coli” value read?
Answer: not soluble

Question: With “MGSDKIHHHHHHMDPRRRLVPDIITLQAFECAARHGNFTRAAEELNLTQSAVSRQIGELEAQTGMQLFERIRRRVVLSEAGRKFLPDVRRLLQQSEQLMVRAVSAGTSHASLSVATLPTFGSRWLMPRLSRFIDANPDMTITIGSRSHPFDFDEEGFDLAIHYGQPIWAHGTCTFLCNEVIVPVASPALLRRAGVNRAQDLAGQPLLHVTTRPKLWTEWLEMNGVTADNAYQGSRFDQFSMIIEAAASGIGFALLPRYLIEAELASSRLEIVFDIPLQTDKSYYVALPEGRQDNVLARAFQAWLLDQVGKPV” as the sequence, how does the “soluble on expression in E. coli” value read?
Answer: not soluble

Question: For “FLETLAKVKKIFIDKTGTLTQKEVLLKEKIIYEEFDGRLLKSLLKVREHLAHSAILKSLDGDEVSLEKIEFFAHGLKASYQNETLLVGSLKFLGSMGVDIPMKESANIMVGFAKNETLCALFILEERLKANAKEVVQALQNKGLELEILSGDNESSVKECAKKLGISNYHAHLTPEDKAQTISSYKGVCAMVGDGNNDALALKQASVSLGFEKSALSKSACDILLLEEDLSLLKKAFDNAQKVYQVVLQ”, which “soluble on expression in E. coli” value is on record?
Answer: not soluble

Question: For “GPGSMSSGSHRSPSAMRPSTRISSIGATSNRSSTHNTETELDPFVASLSRVTVYTDIPDKTLQRIMSITVDAYNRFVLVPTRNTWRKEEGSRKELEREVERTALRDIAQAVKVNVEAALGGTWHVIYGRSFATYVTHQQRCFCHFQLDGANVVVWRHGG”, which “soluble on expression in E. coli” value is on record?
Answer: soluble

Question: For “MSLKILLLVAISCLFVACSNDKEKQQNDVNLSTEASINQSDDMNFKLNLIDGGSISVKKENAVLNFNDEDKVTLFVFFTTWCTPCIAEIPHLNKLQEKYNNDFNIVGVLLEDKSNDEIQKFIEQHKISYKVANGENNYLLAKALGGVNGIPTMFLYNKHSKLINQYLGLIPEEMLEIDIQKAILEGGSHHHHHH”, which “soluble on expression in E. coli” value is on record?
Answer: soluble

Question: Which “soluble on expression in E. coli” value does the source give for “MSKIAIIGATGRAGSQLLEEALRRGHSVTAIARNTAKIGSRAGVVSRDVDVADSAALQAAVAGHDVVISAAHFSSIAANAIIDPVKKAGVKRLLVVGGAGSLLLPGGSKVIDSPGFPEEYKAEASAGGVYLETLRKEQDLDWTFLSPSAEFVEGERTGHFRLGQDDLLVSAEGRSWITFADYAIAMLDEVEKPAHSRQRFTVGYLEHHHHHH” here?
Answer: not soluble

Question: With “MEVSSVFIFPPKPKDVLTITLTPKVTCVVVDISKDDPEVQFSWFVDDVEVHTAQTQPREEQFNSTFRSVSELPIMHQDWLNGKEFKCRVNSAAFPAPIEKTISKTKGRPKAPQVYTIPPPKEQMAKDKVSLTCMITDFFPEDITVEWQWNGQPAENYKNTQPIMDTDGSYFVYSKLNVQKSNWEAGNTFTCSVLHEGLHNHHTEKSLSHSPGKE” as the sequence, how does the “soluble on expression in E. coli” value read?
Answer: soluble

Question: With “GLLAFFMVIAVSVGGLTQIVPLFFQDVTNKPVEGMKPRTALEVEGRDIYIREGCVGCHSQMIRPFRAETERYGHYSVAGESVWDHPFLWGSKRTGPDLARVGGRYSDDWHRAHLYNPRNVVPESKMPSYPWLVENKLDGKDTAKKMEVLRTLGTPYTDADIAGARDAVKGKTEMDAIVAYLQGLGT” as the sequence, how does the “soluble on expression in E. coli” value read?
Answer: not soluble

Question: Which “soluble on expression in E. coli” value does the source give for “MGMELILREWMGKEKDYSISYSTYMNLVLYTEGHGYYMKEREKIGRQGDFFTSSNVSSVFAKTFAKLFIRLVENGEVASNICEVGGGTGKFAYDVLQEWKQLSPNTFINLNYSMIEVSPFHRKLQQEQLGSFSNVSYYTSYSEMGDSFEGILFSNELFDAFPVEVIEKRNGILYEVRITYTEEGNLSEVCRPLNKRIGRYLLKYNIHIAEGQRFEVPIVMEEYIKEISKWFQKGICITVDYGYTKEEWMHPAHREGSLRGYYQHKLMRNPLAHPGEMDLTTHVHWDELKEMFSMQGMSAVWHKKQSEFLLAAGILEQLTSHQDTNPFSETQKQNRAVRSMILNGGVGSSFDVVIHTKDMQHLHLDQYVTILEHHHHHH” here?
Answer: soluble

Question: For “MDILKKIEKYREEEQRLKWEGTFADYLEIIKENPMVAQSAHSRVFNMIKDSGIEEIDGRKKYSFFDRELFGLEESLERLVEEYFHPAAKRLDVRKRILLLMGPVSGGKSTLVTMLKKGLEAYTLTDNGAVYAIKGCPMHEDPLHLIPHHLRDDFYREYGIRIEGSLSPLNVMRLEEEYGGRIEDVKVERIFFSEDKRTGIGTFSPSDPKSQDIADLTGSIDFSTIAEYGSESDPRAYRFDGELNKANRGMMEFQEMLKCDEKFLWHLLSLTQEGNFKAGRFALISADELIVAHTNETEYRSFISNKKNEALHSRIIVMPVPYNLKVSEEERIYEKMIAESDVADVHIAPHTLKVAAMFSILTRLKEPKRSD”, which “soluble on expression in E. coli” value is on record?
Answer: not soluble

Question: For “MGSDKIHHHHHHMDIIEELRAYREKDIPYSRVLSSMCTVPHPVAVEAHRMFIETNLGDPGIFRGTVELEAKLMRLIGDILHCETPAGYICSGGTEANIQGIRAARNVQKKENPNIVIPKTAHFSFEKIGDILGVKIKRAGVDEEYKVDVGQVEDLMDENTVAIVGIAGTTELGQIDPIVELSKLAEERQVELHVDAAFGGLVIPFMDNPYPFDFQNRGVSSITIDPHKMGMATIPAGGIIFRNESYLRALEVETPYLTSKTQFTLTGTRPGTGVASAYAVLKSLGFEGMREVVKNCLKNTRILVEEMRDLGFEPVIEPVMNVVSFRTDEAERIKEELYRMRWVISTIREPKAIRFVVMPHVTEEVIKNFISDFRKVLRR”, which “soluble on expression in E. coli” value is on record?
Answer: not soluble

Question: For “GPGSMLARGCVLRWHAVSARRVLGLHDGQSYTPADIKKAFRERALTAHPDAGGDADGFRQLQRAYEVLLHEHSVGKKGSEAAAASDDSEGGSGFYAHPHAEWCNDMRSQRAYWRDMYTEMNMNPNSCGSHRHASNTHYQARQHYRTYGEGLGEDFQKEFKSSSFAGGGQRGSQMNFSTWYFYRPYYSNYRNPFGTGFTPEEIRRAEQEQRRGFARAVARHACLWSGLAFVVYLHERNNRVWRAVEARDKGYKDPEYWEQLRKDEEEARRRSRAPLRLEQHWLDAPLMRSLMDLTEGGHSGGCGKNGQDAEDNISGAARAGTAWATQQARMAQERRRQAMSSTRGMRRGASGDVGGPRVVSYQGRPFTPNGVRGMRNTAPKTPKTYADDVTYEMDDDDDV”, which “soluble on expression in E. coli” value is on record?
Answer: not soluble

Question: For “MAHHHHHHMDNLFYYMIIQNDRIQPIIVRQPQTVIIHSQPKLPITLDLPPQNIILKNEDPQPIIVRQSNPNIIIEKSQNDFYNHPNFHIGLHDKVNSMSDINNTNIKEQPIKDNMIEDMQNINNADTQFYYNNQNVINENNVLPTHYSYLNNGVFNKEHNYDPYNFTLYSNK”, which “soluble on expression in E. coli” value is on record?
Answer: not soluble

Question: With “MQADPAIRRFAKKRNKRVDRMILDSNYMHTSIDRYFPNESKRRGRPDIIYLLLEMTQESILNHKNQLRTYVHTRNNQVIRISPITRMPKSYNRFIGLFEDLFEKRIITNNGKELLSMEESSLGDLINSIRRDRTILLHPKGEMRKPSEFISNANILIVIGGFSEGDFISDTSFINERYAIFDQELTIWSVANEMVANYERAVGLTLEHHHHHH” as the sequence, how does the “soluble on expression in E. coli” value read?
Answer: soluble

Question: With “MEVEIKFKIKLEDFLHTLNTFNPEFVRYEEQEDVYFEVPRPKLLRIRGVHNLKKYYLTFKEILDENNEEFYEVEFEIGDFEKAVEVFKRLGFKIQATIKKKRWVYKLNGVTLEVNRVEGIGDFVDIEVISDSPEEAKEKIWEVAKMLGLKEEDVEPRLYLELINELSGRSSLEHHHHHH” as the sequence, how does the “soluble on expression in E. coli” value read?
Answer: soluble

Question: For “MSLNEIDKSVDIGFLRILDVIKKVKTPKGGIEVLRTLIDFTPKIENALNLATKSHKGQYRKSGEPYIVHPICVASVVAFCGGDEAMVCAALLHDVVEDTPCEIETIEREFGQDVANLVDALTKITEIRKEELGVSSQDPRMVVSALTFRKILISAIQDPRALVVKISDRLHNMLTLDALPHDKQVRISKETLAVYAPIASRLGMSSIKNELEDKSFYYIYPEEYKNIKEYLHKNKQSLLLKLNAFASKLEKKLFDSGFSHSDFKLVTRVKRPYSIYLKMQRKGAVNIDEILDLLAIRILLKNPIDCYKVLGIIHLNFKPIVSRFKDYIALPKENGYKTIHTTIFDESSVYEVQIRTFDMHMGAEYGNSAHWKYKAGGVDHEEHHEGMRWLQNFKYHDSDLKNDPKEFYELAKNDLYREDIVVFSPHGDTYTLPVGAIALDFAYMVHSDLGDKATDAYINSKKALLNQELRSGDVVKIIKGDKVIPRFIWMDQLKTSKAKNHLRIQRRNRLKEIDTKSMINILATFFGRSVFEDADLKDYKNFEEKLTDCGVETTLTEAMKSFENLAKLTEEIENKVFSLKEDAILEYQEMSLWTRGLRYLGFKTNVLNFLTPNRQWQCKELEHFSVCSSNALEIKQVLLNDCCYPKYGDEIIAIVTDLKDPKAIAHHKFCKKAIAEVDAKVPMVYIEWHKRDRTIYKMMFYLGEKKSVLASLLTFLNRNECNIVGVSYLGYKDKYSSHCEVSFEIATDKADWMRALINRKYQDRIVELSSLDDAYELQEGHHHHHH”, which “soluble on expression in E. coli” value is on record?
Answer: soluble

Question: Which “soluble on expression in E. coli” value does the source give for “MVEVRYLGHSAVLLTDGKTRIVIDPFLTGNPMAALGVGEVQADLILVTHAHGDHFGDSVALSKKGGVVVSTFEIATYAEKHGAKSVPMNLGGTYRFEGGWLKWVPAWHSSSFPDGTYGGMPMGVVVELGGKRIYHAGDTALFSDMRLIGEMGLDLALLPIGDHFTMGPEDALKALELLRPKKVVPIHYNTFPPIRQDGEAFAQRAREKGVEGHALKPGEVLRLD” here?
Answer: soluble

Question: Which “soluble on expression in E. coli” value does the source give for “MAHHHHHHMRYFRVLHNFDAQDGVELTVKKGETVFTAESEVREGWIKVEVLHDPRRRGFVPFNYLRETTESLAREQEEGSRGIGRESGGMSTASMTLQPSAVPRETSVTFTSGALDYGDRLQNMYGVGASAPSPVSQRSRSAEQGMKRVNENSMATATKGAVMEPLLPSQKVPSSPPSGADPVPERSLLNNPSAIVEAFMKNELHFKQLIRQRQDALAQMRTTVEEAMSELAACKEKNFTLARKLRELDQSVEKERGRWKERIMEEKAYISRSMSSE” here?
Answer: soluble

Question: With “MSSNHPLDQLYRQVIMDHYKNPRNRGVLEGTNVDVNMNNPTCGDRIHLTMKVEDGKVADVKFEGEGCSISMSSASMMTQAIKGKTVEEALRLAHIFSDMIQGKEYDDSVDLGDIEALQGVSKFPARIKCATLAWKALEKGLHNHEHEGR” as the sequence, how does the “soluble on expression in E. coli” value read?
Answer: not soluble

Question: For “MVQSSSVLREPSMDEILTSIREIIEENAVHPDYFSNEGAAGNSSRENLEIPSEGVYDTSLSVDDAMKALADRIGLSSENHDFSLTKDKESIEAENNTVGVDMQKMKRSSEEQSSVHRTQEHNKPFSQSENVIAGHVELSAYCISSAEKIAKDVLRPAIAEWLQHKLPVLLEDILREEIVRAIKKSS”, which “soluble on expression in E. coli” value is on record?
Answer: not soluble

— the DeepSol protein solubility set
